Results taken from IntAct's records for PubMed 31515488.

B1: E3 ubiquitin-protein ligase TRIM32 (Homo sapiens), Q13049 (parent)
chain: MAAAAASHLNLDALREVLECPICMESFTEEQLRPKLLHCGHTICRQCLEKLLASSINGVRCPFCSKITRITSLTQLTDNLTVLKIIDTAGLSEAVGLLMCRSCGRRLPRQFCRSCGLVLCEPCREADHQPPGHCTLPVKEAAEERRRDFGEKLTRLRELMGELQRRKAALEGVSKDLQARYKAVLQEYGHEERRVQDELARSRKFFTGSLAEVEKSNSQVVEEQSYLLNIAEVQAVSRCDYFLAKIKQADVALLEETADEEEPELTASLPRELTLQDVELLKVGHVGPLQIGQAVKKPRTVNVEDSWAMEATASAASTSVTFREMDMSPEEVVASPRASPAKQRGPEAASNIQQCLFLKKMGAKGSTPGMFNLPVSLYVTSQGEVLVADRGNYRIQVFTRKGFLKEIRRSPSGIDSFVLSFLGADLPNLTPLSVAMNCQGLIGVTDSYDNSLKVYTLDGHCVACHRSQLSKPWGITALPSGQFVVTDVEGGKLWCFTVDRGSGVVKYSCLCSAVRPKFVTCDAEGTVYFTQGLGLNLENRQNEHHLEGGFSIGSVGPDGQLGRQISHFFSENEDFRCIAGMCVDARGDLIVADSSRKEILHFPKGGGYSVLIREGLTCPVGIALTPKGQLLVLDCWDHCIKIYSYHLRRYSTP
partner: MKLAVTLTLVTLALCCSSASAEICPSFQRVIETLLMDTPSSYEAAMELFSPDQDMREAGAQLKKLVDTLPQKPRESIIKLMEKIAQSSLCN
B2: Myomegalin (Homo sapiens), Q5VU43-2 (parent)
chain: MKEICRICARELCGNQRRWIFHTASKLNLQVLLSHVLGKDVPRDGKAEFACSKCAFMLDRIYRFDTVIARIEALSIERLQKLLLEKDRLKFCIASMYRKNNDDSGAEIKAGNGTVDMSVLPDARYSALLQEDFAYSGFECWVENEDQIQEPHSCHGSEGPGNRPRRCRGCAALRVADSDYEAICKVPRKVARSISCGPSSRWSTSICTEEPALSEVGPPDLASTKVPPDGESMEEETPGSSVESLDASVQASPPQQKDEETERSAKELGKCDCCSDDQAPQHGCNHKLELALSMIKGLDYKPIQSPRGSRLPIPVKSSLPGAKPGPSMTDGVSSGFLNRSLKPLYKTPVSYPLELSDLQELWDDLCEDYLPLRVQPMTEELLKQQKLNSHETTITQQSVSDSHLAELQEKIQQTEATNKILQEKLNEMSYELKCAQESSQKQDGTIQNLKETLKSRERETEELYQVIEGQNDTMAKLREMLHQSQLGQLHSSEGTSPAQQQVALLDLQSALFCSQLEIQKLQRVVRQKERQLADAKQCVQFVEAAAHESEQQKEASWKHNQELRKALQQLQEELQNKSQQLRAWEAEKYNEIRTQEQNIQHLNHSLSHKEQLLQEFRELLQYRDNSDKTLEANEMLLEKLRQRIHDKAVALERAIDEKFSALEEKEKELRQLRLAVRERDHDLERLRDVLSSNEATMQSMESLLRAKGLEVEQLSTTCQNLQWLKEEMETKFSRWQKEQESIIQQLQTSLHDRNKEVEDLSATLLCKLGPGQSEIAEELCQRLQRKERMLQDLLSDRNKQVLEHEMEIQGLLQSVSTREQESQAAAEKLVQALMERNSELQALRQYLGGRDSLMSQAPISNQQAEVTPTGRLGKQTDQGSMQIPSRDDSTSLTAKEDVSIPRSTLGDLDTVAGLEKELSNAKEELELMAKKERESQMELSALQSMMAVQEEELQVQAADMESLTRNIQIKEDLIKDLQMQLVDPEDIPAMERLTQEVLLLREKVASVESQGQEISGNRRQQLLLMLEGLVDERSRLNEALQAERQLYSSLVKFHAHPESSERDRTLQVELEGAQVLRSRLEEVLGRSLERLNRLETLAAIGGAAAGDDTEDTSTEFTDSIEEEAAHHSHQQL
partner: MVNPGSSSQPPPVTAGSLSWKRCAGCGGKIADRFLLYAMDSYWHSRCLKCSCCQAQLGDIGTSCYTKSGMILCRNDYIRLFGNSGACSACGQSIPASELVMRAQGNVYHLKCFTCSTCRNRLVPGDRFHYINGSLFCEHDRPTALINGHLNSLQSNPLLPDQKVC
B3: Protein mab-21-like 3 (Homo sapiens), Q8N8X9 (parent)
chain: MKYLTVGDLEDCLLNKVDLRRQQISQAVEEVQKVVHHLTTNISNQDIRFQAVPYSDTYNENIKVLAPSQFLVTVPIKGLAGYREAREQHWRYYTLQGTRLPCPLRDPEGLQQWLEVEQFMKSLWQWHETDVNIDGDIVPAKVLLVFRKLVENAVRTCHLSGKVSLLGNRSAVWVAVETSAYQVELELVPAVEIPTTWSKKARWPRCLQRWPSQERVECIKSFGFNLLACSNYHWQLSFLRAEQVLLEQLDEDGGCRRKCFQVMRHLKEDIWCPGNRPVITSHHLQTVLFWTCEKYPHFKDWQVFSKAFLRLVRKLHKCVSQHFLKHYFVRNSNLFQCTNPTELDTVAQKLATFLKNPQIGPP
partner: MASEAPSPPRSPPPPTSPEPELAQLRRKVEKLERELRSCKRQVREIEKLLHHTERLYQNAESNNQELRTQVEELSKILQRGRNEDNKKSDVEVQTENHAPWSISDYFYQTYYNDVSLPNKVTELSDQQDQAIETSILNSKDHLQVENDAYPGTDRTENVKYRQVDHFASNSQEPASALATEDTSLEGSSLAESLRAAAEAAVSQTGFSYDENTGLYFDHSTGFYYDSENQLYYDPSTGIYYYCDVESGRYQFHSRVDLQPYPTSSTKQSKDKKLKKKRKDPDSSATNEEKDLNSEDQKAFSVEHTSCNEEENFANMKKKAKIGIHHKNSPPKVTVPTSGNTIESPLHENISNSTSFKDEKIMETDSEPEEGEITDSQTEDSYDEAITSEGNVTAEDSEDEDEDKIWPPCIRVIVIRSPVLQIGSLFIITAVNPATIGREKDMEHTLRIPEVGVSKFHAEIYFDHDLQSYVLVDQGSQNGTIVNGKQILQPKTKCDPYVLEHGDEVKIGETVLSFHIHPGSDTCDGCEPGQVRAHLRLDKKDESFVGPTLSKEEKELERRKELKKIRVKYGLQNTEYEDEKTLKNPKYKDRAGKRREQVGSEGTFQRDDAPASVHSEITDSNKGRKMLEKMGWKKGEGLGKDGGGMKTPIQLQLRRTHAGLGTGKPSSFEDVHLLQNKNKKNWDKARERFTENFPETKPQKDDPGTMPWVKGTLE
B4: Four and a half LIM domains protein 2 (Homo sapiens), Q14192 (parent)
chain: MTERFDCHHCNESLFGKKYILREESPYCVVCFETLFANTCEECGKPIGCDCKDLSYKDRHWHEACFHCSQCRNSLVDKPFAAKEDQLLCTDCYSNEYSSKCQECKKTIMPGTRKMEYKGSSWHETCFICHRCQQPIGTKSFIPKDNQNFCVPCYEKQHAMQCVQCKKPITTGGVTYREQPWHKECFVCTACRKQLSGQRFTARDDFAYCLNCFCDLYAKKCAGCTNPISGLGGTKYISFEERQWHNDCFNCKKCSLSLVGRGFLTERDDILCPDCGKDI
partner: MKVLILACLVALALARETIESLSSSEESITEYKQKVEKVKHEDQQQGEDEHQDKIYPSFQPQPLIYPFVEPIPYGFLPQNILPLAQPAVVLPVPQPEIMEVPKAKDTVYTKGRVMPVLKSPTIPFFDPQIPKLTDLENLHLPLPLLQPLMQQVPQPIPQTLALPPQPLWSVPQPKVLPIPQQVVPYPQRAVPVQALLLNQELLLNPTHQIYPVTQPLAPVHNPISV
B5: Myomegalin (Homo sapiens), Q5VU43-2 (parent)
chain: B2 chain
B6: THAP domain-containing protein 8 (Homo sapiens), Q8NA92 (parent)
chain: MPKYCRAPNCSNTAGRLGADNRPVSFYKFPLKDGPRLQAWLQHMGCEHWVPSCHQHLCSEHFTPSCFQWRWGVRYLRPDAVPSIFSRGPPAKSQRRTRSTQKPVSPPPPLQKNTPLPQSPAIPVSGPVRLVVLGPTSGSPKTVATMLLTPLAPAPTPERSQPEVPAQQAQTGLGPVLGALQRRVRRLQRCQERHQAQLQALERLAQQLHGESLLARARRGLQRLTTAQTLGPEESQTFTIICGGPDIAMVLAQDPAPATVDAKPELLDTRIPSA
B7: Zinc finger protein Aiolos (Homo sapiens), Q9UKT9 (parent)
chain: MEDIQTNAELKSTQEQSVPAESAAVLNDYSLTKSHEMENVDSGEGPANEDEDIGDDSMKVKDEYSERDENVLKSEPMGNAEEPEIPYSYSREYNEYENIKLERHVVSFDSSRPTSGKMNCDVCGLSCISFNVLMVHKRSHTGERPFQCNQCGASFTQKGNLLRHIKLHTGEKPFKCHLCNYACQRRDALTGHLRTHSVEKPYKCEFCGRSYKQRSSLEEHKERCRTFLQSTDPGDTASAEARHIKAEMGSERALVLDRLASNVAKRKSSMPQKFIGEKRHCFDVNYNSSYMYEKESELIQTRMMDQAINNAISYLGAEALRPLVQTPPAPTSEMVPVISSMYPIALTRAEMSNGAPQELEKKSIHLPEKSVPSERGLSPNNSGHDSTDTDSNHEERQNHIYQQNHMVLSRARNGMPLLKEVPRSYELLKPPPICPRDSVKVINKEGEVMDVYRCDHCRVLFLDYVMFTIHMGCHGFRDPFECNMCGYRSHDRYEFSSHIARGEHRALLK
partner: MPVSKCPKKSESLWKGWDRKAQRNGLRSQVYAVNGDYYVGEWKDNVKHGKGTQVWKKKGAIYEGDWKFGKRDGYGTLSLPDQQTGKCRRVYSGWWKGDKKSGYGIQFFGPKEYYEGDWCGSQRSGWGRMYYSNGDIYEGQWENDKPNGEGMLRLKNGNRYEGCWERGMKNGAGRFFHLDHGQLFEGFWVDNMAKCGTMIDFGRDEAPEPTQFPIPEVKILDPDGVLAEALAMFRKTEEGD

Variants of: B1
Details: with uter_human SCGB1A1, P11684

Variant	effect of a mutation on the interaction
E547A	disrupting interaction strength

Variants of: B2
Details: with lmo4_human LMO4, P61968

Variant	effect of a mutation on the interaction
N28S	with no effect

Variants of: B3
Details: with aggf1_human AGGF1, Q8N302

Variant	effect of a mutation on the interaction
T338A	with no effect

Variants of: B4
Details: with casb_human CSN2, P05814

Variant	effect of a mutation on the interaction
N95K	with no effect

Variants of: B5
Details: with prp31_human PRPF31, Q8WWY3
Sequence of prp31_human PRPF31, Q8WWY3 (Q8WWY3 whole entry): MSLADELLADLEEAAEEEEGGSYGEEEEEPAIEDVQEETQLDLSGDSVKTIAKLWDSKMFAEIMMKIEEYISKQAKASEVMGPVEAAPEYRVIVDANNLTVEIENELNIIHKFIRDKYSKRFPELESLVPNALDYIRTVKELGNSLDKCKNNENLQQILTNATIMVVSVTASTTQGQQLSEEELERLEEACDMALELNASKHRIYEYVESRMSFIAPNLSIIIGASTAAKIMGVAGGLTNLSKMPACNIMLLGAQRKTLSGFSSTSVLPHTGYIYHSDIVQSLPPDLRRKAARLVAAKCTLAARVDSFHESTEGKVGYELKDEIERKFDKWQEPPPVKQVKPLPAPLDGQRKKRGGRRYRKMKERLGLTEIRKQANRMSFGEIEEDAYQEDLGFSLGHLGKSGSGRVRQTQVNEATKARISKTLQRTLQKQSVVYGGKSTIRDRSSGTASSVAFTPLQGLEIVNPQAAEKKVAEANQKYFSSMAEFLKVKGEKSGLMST

Variant	effect of a mutation on the interaction
N28S	with no effect

Variants of: B5
Details: with sdcb1_human SDCBP

Variant	effect of a mutation on the interaction
N28S	with no effect

Variants of: B5
Details: with mare1_human MAPRE1, Q15691
Sequence of mare1_human MAPRE1, Q15691 (Q15691 whole entry): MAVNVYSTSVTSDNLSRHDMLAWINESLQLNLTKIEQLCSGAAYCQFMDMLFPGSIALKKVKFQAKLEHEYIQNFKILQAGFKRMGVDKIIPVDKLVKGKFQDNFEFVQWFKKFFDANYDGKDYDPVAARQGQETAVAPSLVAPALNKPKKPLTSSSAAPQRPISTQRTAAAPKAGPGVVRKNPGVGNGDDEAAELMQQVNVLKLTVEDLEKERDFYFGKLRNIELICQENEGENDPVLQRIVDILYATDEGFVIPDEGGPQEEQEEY

Variant	effect of a mutation on the interaction
N28S	with no effect

Variants of: B6
Details: with tfp11_human TFIP11, Q9UBB9
Sequence of tfp11_human TFIP11, Q9UBB9 (Q9UBB9 whole entry): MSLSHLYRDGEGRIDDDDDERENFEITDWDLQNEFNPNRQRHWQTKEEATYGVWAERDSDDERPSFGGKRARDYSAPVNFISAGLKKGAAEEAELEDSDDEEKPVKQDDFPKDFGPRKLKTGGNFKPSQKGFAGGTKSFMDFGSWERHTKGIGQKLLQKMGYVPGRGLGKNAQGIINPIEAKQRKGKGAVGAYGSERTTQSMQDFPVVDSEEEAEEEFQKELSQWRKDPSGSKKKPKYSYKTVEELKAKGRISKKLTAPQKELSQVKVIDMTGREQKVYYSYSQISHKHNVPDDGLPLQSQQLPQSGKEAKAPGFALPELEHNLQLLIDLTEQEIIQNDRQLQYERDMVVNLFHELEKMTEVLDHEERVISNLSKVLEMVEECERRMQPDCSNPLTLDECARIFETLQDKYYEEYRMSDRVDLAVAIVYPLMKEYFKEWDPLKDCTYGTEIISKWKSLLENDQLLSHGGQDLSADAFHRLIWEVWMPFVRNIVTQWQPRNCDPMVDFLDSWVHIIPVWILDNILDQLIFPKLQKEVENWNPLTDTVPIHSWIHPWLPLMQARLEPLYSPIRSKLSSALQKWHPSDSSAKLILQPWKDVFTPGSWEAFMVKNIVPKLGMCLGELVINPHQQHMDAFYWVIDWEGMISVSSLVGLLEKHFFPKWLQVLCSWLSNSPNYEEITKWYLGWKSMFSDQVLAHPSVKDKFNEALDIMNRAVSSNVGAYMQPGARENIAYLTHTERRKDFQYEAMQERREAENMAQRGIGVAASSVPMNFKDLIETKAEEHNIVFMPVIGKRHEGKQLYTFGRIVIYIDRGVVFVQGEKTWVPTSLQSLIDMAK

Variant	effect of a mutation on the interaction
P157S	with no effect
R189W	with no effect
R185Q	with no effect

Variants of: B7
Details: with morn3_human MORN3, Q6PF18

Variant	effect of a mutation on the interaction
N119D	with no effect
A24V	with no effect
